# From patent US20130052712
# Test system: mussel adhesive protein fp-151
# Sequence (chain, as listed by the source): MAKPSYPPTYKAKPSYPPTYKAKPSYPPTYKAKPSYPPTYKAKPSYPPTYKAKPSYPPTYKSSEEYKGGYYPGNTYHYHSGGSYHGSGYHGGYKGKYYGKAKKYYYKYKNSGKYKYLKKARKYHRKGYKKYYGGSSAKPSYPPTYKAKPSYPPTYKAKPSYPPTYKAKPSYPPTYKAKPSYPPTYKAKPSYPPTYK
substance,measurement,value
alkaline phosphatase,"activity of alkaline phosphatase remaining on the nanofiber (conversion of pNPP, absorbance at 405 nm)",alkaline phosphatase is coated only on PCL/fp-151 nanofiber to exhibit the activity
